The values below come from IntAct's records for PubMed 25678664.

The chains are these.
B1: Claudin-19 (Mus musculus), Q9ET38 (parent)
chain: MANSGLQLLGYFLALGGWVGIIASTALPQWKQSSYAGDAIITAVGLYEGLWMSCASQSTGQVQCKLYDSLLALDGHIQSARALMVVAVLLGFVAMVLSVVGMKCTRVGDSNPTAKSRVAISGGALFLLAGLCTLTAVSWYATLVTQEFFNPSTPVNARYEFGPALFVGWASAGLAMLGGSFLCCTCPEPERANSIPQPYRSGPSTAAREPVVKLPASVKGPLGV

The variants in this experiment derive from B1. Particulars: with eltb_clopf cpe.
P151A: the “effect of a mutation on the interaction” value is on record as “decreasing interaction strength”. The entry for P151G is “decreasing interaction strength”.

In the case of Y35S, the “effect of a mutation on the interaction” value is listed as “decreasing interaction strength”.

In the case of I41A, the “effect of a mutation on the interaction” value is reported as “decreasing interaction strength”. On to I41S, for which the “effect of a mutation on the interaction” value is “decreasing interaction strength”. On to I41V, for which the “effect of a mutation on the interaction” value is reported as “decreasing interaction strength”. Turning to T153Y, the “effect of a mutation on the interaction” value is “decreasing interaction strength”.

With N150D, the “effect of a mutation on the interaction” value is “decreasing interaction strength”. N150L: the “effect of a mutation on the interaction” value is “decreasing interaction strength”.

In the case of N150K, the “effect of a mutation on the interaction” value is “decreasing interaction strength”.

For N150S, the “effect of a mutation on the interaction” value is reported as “decreasing interaction strength”.

In the case of N150A, the “effect of a mutation on the interaction” value is “decreasing interaction strength”. The entry for N150Q is “decreasing interaction strength”; for N156G it is “decreasing interaction strength”. As to A39S, the “effect of a mutation on the interaction” value is reported as “decreasing interaction strength”.

Consider A39R, for which the “effect of a mutation on the interaction” value is on record as “decreasing interaction strength”. On to S152D, for which the “effect of a mutation on the interaction” value is recorded as “decreasing interaction strength”. For I40A the value was “decreasing interaction strength”; for I40L, “decreasing interaction strength”; for I40S, “decreasing interaction strength”. Turning to I40V, the “effect of a mutation on the interaction” value was “decreasing interaction strength”. Take P154A: the “effect of a mutation on the interaction” value is on record as “decreasing interaction strength”. With P154D, the “effect of a mutation on the interaction” value is recorded as “decreasing interaction strength”. For the variant Y159F, the “effect of a mutation on the interaction” value is listed as “decreasing interaction strength”. For Y159S the value was “decreasing interaction strength”.
